Test results from the supplement of paper PMC9112550, “Optimization of the antimicrobial peptide Bac7 by deep mutational scanning” (BMC Biology, 2022).

tested on: Escherichia coli TOP10; experiment: shrunken log2 fold change of peptide-encoding DNA abundance (4.5 h post-induction vs induction); higher = less antimicrobial activity (less host growth inhibition); details: time post-induction: 4.5 h; library: site-saturation at positions 5, 18, 19, 20
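Note: peptides expressed intracellularly from a pBAD plasmid library in pooled LB shake-flask culture, induced with 0.3% L-arabinose, DNA abundance read by NGS, three biological replicates, DESeq2 with apeglm shrinkage.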

Sequence	shrunken log2 fold change
RRIRSRPPRLPRPRPRPGDMPRP	0.0129
RRIRCRPPRLPRPRPRPALEPRP	-0.00844
RRIRRRPPRLPRPRPRPKIYPRP	-0.127
RRIRTRPPRLPRPRPRPVKWPRP	-0.0599
RRIRIRPPRLPRPRPRPMDYPRP	-0.00141
RRIRARPPRLPRPRPRPMVTPRP	0.21
RRIRQRPPRLPRPRPRPKTGPRP	-0.151
RRIRERPPRLPRPRPRPYICPRP	-0.486
RRIRFRPPRLPRPRPRPPVDPRP	0.41
RRIRFRPPRLPRPRPRPVVEPRP	0.258
RRIRQRPPRLPRPRPRPSMFPRP	-0.667
RRIRRRPPRLPRPRPRPQARPRP	0.246
RRIRWRPPRLPRPRPRPHYQPRP	-0.00398
RRIRTRPPRLPRPRPRPQQIPRP	-0.0971
RRIRSRPPRLPRPRPRPEPQPRP	0.397
RRIRNRPPRLPRPRPRPCRYPRP	-0.148
RRIRYRPPRLPRPRPRPGSYPRP	-0.349
RRIRSRPPRLPRPRPRPDDMPRP	0.0939
RRIRFRPPRLPRPRPRPSYRPRP	-0.783
RRIRDRPPRLPRPRPRPWDSPRP	-0.000687
RRIRYRPPRLPRPRPRPYRGPRP	-0.765
RRIRARPPRLPRPRPRPQVRPRP	-0.0207
RRIRSRPPRLPRPRPRPNRFPRP	-0.0804
RRIRMRPPRLPRPRPRPRYQPRP	-0.0321
RRIRMRPPRLPRPRPRPFDFPRP	0.0495

Sequence	shrunken log2 fold change
RRIRWRPPRLPRPRPRPDWDPRP	0.243
RRIRSRPPRLPRPRPRPCGNPRP	0.1
RRIRRRPPRLPRPRPRPYFTPRP	-0.432
RRIRPRPPRLPRPRPRPEQMPRP	0.0974
RRIRPRPPRLPRPRPRPKMHPRP	0.153
RRIRIRPPRLPRPRPRPTHPPRP	0.225
RRIRMRPPRLPRPRPRPTSEPRP	0.511
RRIRPRPPRLPRPRPRPYQQPRP	-0.139
RRIRQRPPRLPRPRPRPYIYPRP	-0.0737
RRIRMRPPRLPRPRPRPTVRPRP	0.216
RRIRNRPPRLPRPRPRPCDMPRP	0.0184
RRIRCRPPRLPRPRPRPDQTPRP	-0.00778
RRIRGRPPRLPRPRPRPYPDPRP	0.201
RRIRTRPPRLPRPRPRPDMIPRP	0.00205
RRIRKRPPRLPRPRPRPWNTPRP	-0.332
RRIRDRPPRLPRPRPRPKKGPRP	0.26
RRIRDRPPRLPRPRPRPLIHPRP	-0.0249
RRIRQRPPRLPRPRPRPMIQPRP	0.0718
RRIRMRPPRLPRPRPRPSMSPRP	-0.024
RRIRCRPPRLPRPRPRPRYTPRP	-0.37
RRIRERPPRLPRPRPRPIHYPRP	-0.0107
RRIRRRPPRLPRPRPRPVWKPRP	0.147
RRIRYRPPRLPRPRPRPKNHPRP	-0.919
RRIRWRPPRLPRPRPRPRQQPRP	-0.0369
RRIRMRPPRLPRPRPRPYLRPRP	0.0522

Sequence	shrunken log2 fold change
RRIRHRPPRLPRPRPRPTSFPRP	0.0399
RRIRPRPPRLPRPRPRPGRVPRP	0.318
RRIRKRPPRLPRPRPRPFHAPRP	-0.179
RRIRCRPPRLPRPRPRPMIWPRP	-0.0837
RRIRSRPPRLPRPRPRPERCPRP	0.0123
RRIRIRPPRLPRPRPRPIEKPRP	-0.0304
RRIRWRPPRLPRPRPRPKYFPRP	-0.302
RRIRYRPPRLPRPRPRPERTPRP	0.0654
RRIRKRPPRLPRPRPRPRLHPRP	0.312
RRIRTRPPRLPRPRPRPLKLPRP	-0.251
RRIRRRPPRLPRPRPRPWIVPRP	3
RRIRRRPPRLPRPRPRPLWHPRP	1.15
RRIRLRPPRLPRPRPRPRVKPRP	-0.0432
RRIRRRPPRLPRPRPRPHVSPRP	-0.0166
RRIRGRPPRLPRPRPRPKQSPRP	0.887
RRIRIRPPRLPRPRPRPTCYPRP	-0.266
RRIRPRPPRLPRPRPRPNNHPRP	-0.607
RRIRPRPPRLPRPRPRPSMYPRP	-0.676
RRIRIRPPRLPRPRPRPHHMPRP	-1.2
RRIRTRPPRLPRPRPRPYSMPRP	-2.42
RRIRFRPPRLPRPRPRPDSFPRP	-0.00668
RRIRVRPPRLPRPRPRPPHAPRP	0.351
RRIRIRPPRLPRPRPRPMDQPRP	0.0178
RRIRDRPPRLPRPRPRPWNEPRP	-0.195
RRIRFRPPRLPRPRPRPNASPRP	-0.304

Sequence	shrunken log2 fold change
RRIRARPPRLPRPRPRPPASPRP	0.77
RRIRSRPPRLPRPRPRPGWMPRP	-0.0141
RRIRPRPPRLPRPRPRPRRHPRP	0.241
RRIRFRPPRLPRPRPRPWEQPRP	-0.00193
RRIRLRPPRLPRPRPRPCKPPRP	-0.1
RRIRMRPPRLPRPRPRPPIIPRP	-0.306
RRIRTRPPRLPRPRPRPMMDPRP	-0.141
RRIRSRPPRLPRPRPRPYHFPRP	-1.8
RRIRSRPPRLPRPRPRPVEIPRP	-0.0626
RRIRHRPPRLPRPRPRPAGTPRP	-0.04
RRIRCRPPRLPRPRPRPRESPRP	0.155
RRIRFRPPRLPRPRPRPCYVPRP	-0.0693
RRIRPRPPRLPRPRPRPAIDPRP	1.19
RRIRKRPPRLPRPRPRPWYMPRP	-0.158
RRIRPRPPRLPRPRPRPPERPRP	0.322
RRIRIRPPRLPRPRPRPMITPRP	-0.616
RRIRKRPPRLPRPRPRPIQNPRP	0.151
RRIRCRPPRLPRPRPRPKNGPRP	0.0379
RRIRYRPPRLPRPRPRPRCSPRP	-0.173
RRIRNRPPRLPRPRPRPFRMPRP	0.00572
RRIRMRPPRLPRPRPRPAYLPRP	0.0142
RRIRDRPPRLPRPRPRPGLLPRP	0.16
RRIRFRPPRLPRPRPRPNDFPRP	-0.228
RRIRPRPPRLPRPRPRPNCAPRP	0.208
RRIRGRPPRLPRPRPRPGDSPRP	0.276

Sequence	shrunken log2 fold change
RRIRVRPPRLPRPRPRPWKQPRP	-0.0479
RRIRRRPPRLPRPRPRPFIEPRP	0.0206
RRIRSRPPRLPRPRPRPPYFPRP	-0.0285
RRIRFRPPRLPRPRPRPHNSPRP	-0.194
RRIRARPPRLPRPRPRPSLVPRP	0.413
RRIRWRPPRLPRPRPRPMWQPRP	0.016
RRIRGRPPRLPRPRPRPITKPRP	-0.0602
RRIRQRPPRLPRPRPRPEQSPRP	0.142
RRIRTRPPRLPRPRPRPKVWPRP	0.325
RRIRVRPPRLPRPRPRPPTMPRP	0.0704
RRIRNRPPRLPRPRPRPNCVPRP	0.393
RRIRQRPPRLPRPRPRPKKMPRP	-0.108
RRIRLRPPRLPRPRPRPLTFPRP	-0.633
RRIRTRPPRLPRPRPRPRNEPRP	-0.0624
RRIRYRPPRLPRPRPRPFNDPRP	-0.102
RRIRMRPPRLPRPRPRPGDYPRP	0.0762
RRIRRRPPRLPRPRPRPCMDPRP	-0.229
RRIRVRPPRLPRPRPRPHLRPRP	0.248
RRIRHRPPRLPRPRPRPDKKPRP	-0.0244
RRIRKRPPRLPRPRPRPSYQPRP	-0.52
RRIRSRPPRLPRPRPRPYQEPRP	-0.157
RRIRYRPPRLPRPRPRPMAFPRP	-0.557
RRIRPRPPRLPRPRPRPFHCPRP	-0.297
RRIRKRPPRLPRPRPRPLKYPRP	0.072
RRIRNRPPRLPRPRPRPWYMPRP	-0.911

Sequence	shrunken log2 fold change
RRIRVRPPRLPRPRPRPQISPRP	-0.0989
RRIRERPPRLPRPRPRPDKMPRP	-0.0703
RRIRTRPPRLPRPRPRPYWKPRP	-0.000823
RRIRRRPPRLPRPRPRPWDEPRP	0.0108
RRIRRRPPRLPRPRPRPLMLPRP	-0.108
RRIRHRPPRLPRPRPRPWHHPRP	0.0223
RRIRPRPPRLPRPRPRPCGYPRP	-0.136
RRIRIRPPRLPRPRPRPQMVPRP	-0.186
RRIRRRPPRLPRPRPRPPYLPRP	0.0685
RRIRCRPPRLPRPRPRPMWWPRP	0.396
RRIRDRPPRLPRPRPRPNFYPRP	-0.109
RRIRMRPPRLPRPRPRPNAKPRP	0.225
RRIRLRPPRLPRPRPRPWFHPRP	-0.352
RRIRSRPPRLPRPRPRPGKCPRP	0.0216
RRIRGRPPRLPRPRPRPYICPRP	-0.423
RRIRGRPPRLPRPRPRPITMPRP	-0.0891
RRIRQRPPRLPRPRPRPIATPRP	-0.0607
RRIRKRPPRLPRPRPRPGHFPRP	0.0417
RRIRFRPPRLPRPRPRPFISPRP	-0.691
RRIRERPPRLPRPRPRPVQNPRP	-0.0413
RRIRLRPPRLPRPRPRPCFYPRP	-0.504
RRIRTRPPRLPRPRPRPCLAPRP	-0.307
RRIRCRPPRLPRPRPRPRTSPRP	0.00938
RRIRQRPPRLPRPRPRPHFMPRP	-0.0158
RRIRSRPPRLPRPRPRPFFGPRP	0.148
